Data as given in US20150351390A1, “COMPOSITIONS AND METHODS FOR AUXIN-ANALOG CONJUGATION” (PIONEER HI-BRED INTERNATIONAL, INC., priority 2012, published 2015).

How the values were obtained:
Format in all cases: biochemical
[1] = LC-MS assay of GH3 conjugation of IAA with Asp or Glu; conditions: LC-MS; for Detected auxin conjugates: IAA-Asp: IAA with Asp; for Detected auxin conjugates: IAA-Glu: IAA with Glu
Outline: (§1)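 Amino acid conjugates of IAA, 2,4-D or dicamba measured by LC-MS against conjugate standards, with kinetic parameters fitted to Michaelis-Menten initial velocities. Reactions: 5 mM each of auxin, ATP and Asp or Glu with 44 to 164 μg/mL purified His-tagged GH3 (E. coli-expressed), pH 8.0 Tris, 5 mM MgCl2, 1 mM DTT, 30 °C for 3 h.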

[2] = LC-MS assay of GH3 conjugation of dicamba with Asp or Glu; conditions: LC-MS; for Detected auxin conjugates: Dicamba-Asp: dicamba with Asp; for Detected auxin conjugates: Dicamba-Glu: dicamba with Glu
Outline: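 GH3 superfamily homologs, found by Blast searches of public databases using AtGH3.17 (Q9FZ87), were synthesized with E. coli-optimized codons and an N-terminal his-tag, expressed in OverExpress C41(DE3) cells after 0.2 mM IPTG induction at 16° C., and Ni-NTA purified. Conjugation of dicamba with Asp or Glu was measured by LC-MS using conjugate standards.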

[3] = LC-MS assay of GH3 conjugation of 2,4-D with Asp or Glu; conditions: LC-MS; for Detected auxin conjugates: 2,4-D-Asp: 2,4-D with Asp; for Detected auxin conjugates: 2,4-D-Glu: 2,4-D with Glu
Outline: as §1

Molecule | Detected auxin conjugates: IAA-Asp [1] | Detected auxin conjugates: IAA-Glu [1] | Detected auxin conjugates: Dicamba-Asp [2] | Detected auxin conjugates: Dicamba-Glu [2] | Detected auxin conjugates: 2,4-D-Asp [3] | Detected auxin conjugates: 2,4-D-Glu [3]
Gm03g30590.1: GH3 protein, Glyma03g30590.1 (protein, Glycine max) MMTDEELLQKLEDLTKNAQHHHLETLRSILLHNGIVHYLQSFKKGSLLHLDPSTFARVVPLSTYEDYVDYINQMAEGKDDPFLSVDPLRCFFYSSGTSSSTMKPKLIPYFDSSLSKAASFIGHRGSVAVRQRLFPPRPEVNKILWFLYADNITTTKCGLKVMAASTYPLQSGNATPQQLAAFSSPLEVILATNVENQMYCHLLCGLRNLDLIDGIATPYAIGLIKAFGFLESKWEQLCDDLDHGFPCNEISEGAMREAVTNTLGGPQPELANRIRLICEGNNWGGIVYRLWPNIRYIRCVTTGSMKQYYQKLKYYAGEVPILGGDYFASECCVGLNLDIMQPPETTRFVMLPTFAYFEFLPFNINEDNDASKEAVDYSSVEVGKMYEVVVTTYRGYYRYRLGDIVRVVGFYNSSPLVEYVMRAPKTPAEIVTEKDLISAVENFQLALRGAMRIEIVEFASFLDQESMPKQLKVFVEVQEESDFLEDKLEESVRVLRSCISSLESGLGAIYKVQKDKGQLRSLRIFIIRPGAFDQLSELAIKNGTSASQYKPPKIIRNHEVVKLLEKLAFVAVSFDG | Yes | No | No | No | Yes | Yes
BjACC38383.1: GH3 protein, accession ACC38383.1 (protein, listed as Brassica juncea) MIIISYYNEEEKGKVLEDLTWNVKQIQDDLLKEILTLNSGTEYLQNFLHGSSAKELFKKNLPIVTYKDVKPYIDRVANGESSNIISTLPITNFFNSSGTSGGANKILPSNSKYLDGSAFSTDLLAHVIRKHVKGVERGKGMLFFLTGHDTKTPGGFPIEDGISWYLKSDYFKNRPSTWFYSYTSPDEVMLGSDLKENLYCHLLCGLVQRDEVTRIGSTFASGMVRVIKVLEDSWKELCSNIRSGNLSEWITDSGCRNSVSLVLGGQPRHKLSDEIESICSQKSWKGIMKKLWPQTLCIEAIATGSMAQYVPTLKHYSGDVPLVSTIYASSESMFGINTDPLCQPENTSYTLMPNISYFEFIPTEGGNGDVVDLADVKLGCSYQLLVTNLWGLYRMRIGDIVKVTGFHNKAPKFRVIGRENTLLSIDTDRTTEEYLLKAVNRARLVLESSDLRLVAFTSYADISSSPGHYVIYWEVKTKEEDMKELDEKTFLECCSVMEDTLDEEYMYCRANEFIGPLEIRVVNDGTFDSLMNLSISKGASITQYKYWRQMWLLDSSVLSEHLMCLSHDIWSKKRGRNVCVLSVLSWFLLTIF | Yes | No | No | No | No | No
Br040953: GH3 protein, Bra040953 (protein, listed as Brassica rapa) MMIPSYDPNDTEAGLQLLEDLTTNADAIQQQVLHQILSQNSETEYLRSFLDGESCNIQENFKNKAPVVNYEDIKPFIQRISDGDSSDILSAQPITELLTSSGTSGGKPKFMPSTAEELDRKTFFYNMLVPVMNKFVNGLDEGKGMYLLFIKPEIKTPSGLQARPVLTSYYKSEQFKNRPFNKYNVITSPNDAILCEDSQQSMYCQLLCGLVQRSDVLRLGAIFASAFLRAVKFLENHFTELCADIRTGTVASWITDSGCRDSVLSILNGPNQELADEIEALFNAKSREGILKRIWPKTKYIEVIVTGSMAQYIPTLEFYSGGLPLVSVMYASSECFFGLNINPLCKPSDVSYTLLPNMAYFEFLPVDDKSHEETHLESRSTDDVSLTDKDRIVDLVSVEIGRYYELIITTFAGLYRYRVGDILKVTGFHNKAPQFSFVERRNVVLSIDTDKTSEEDLMKAVTQAKLNHLQGLFLLTEYTSYADTSSIPGHYVLFWELKPRYDNDPPKLDKKMMEDCCSEVEDCLDYVYRRCRNKDRSIGALEIRVVSLGTFDALMDFSISQGSSVNQYKTPRCVKSGGALQILDSRVIGRFFTKRVPQWEPLGLDS | Yes | Yes | No | No | Yes | Yes
Br016359: GH3 protein, Bra016359 (protein, listed as Brassica rapa) MSVISVLTEKANDKLKILEDLTSNVKQIQDNVLEEILTLNTNTEYLQRFFHGKFDKEIFKKNVPVGTYEDVKPYIQRVANGEPSNVISTRPITGFLLSSGTSGGAQKIMPWNEKFLDYLTFMYDLRMHVITNYVKGLEKGKAMMFYFTKLESTTASGLPARTASSSYLKSSYFKNRPCNWYYTYTSPDEVILCPDNKQSLYCHLLCGLVQRNEVTRMGSIFASVMVRAIKFLEDSWEELCSNIRSGQLSEWITDPGCRDSVSMVLGGPHPEVANTVEKICNEKCWKGILKRLWPRTKYIETIVTGSMAQYVPTLNYYCNDMLPLVSTIYASSETTFGLNLNPLCKPEDVSYTIMPNVSYFEFIPLDGDENDVVDLADLKLGCSYELVVTNFSGLYRIRVGDILLVTGFYNKAPQLRFIRRDNVVLSIDMDKTNEEDLFNAVNRAKLIINSSGLMLTDFTSHGDISTIPGHYVIYWEVEDKREDKTKHICMELKGDAFSECCLVMEDSFDNVYKRCRFREKTVGPLEIKVVLHGTFDSLMDFFISQGASIGQYKTPRCIGSGKPLELLEKNVVATFFSTGDCSFKN | Yes | No | No | No | Yes | No
Br008836: GH3 protein, Bra008836 (protein, listed as Brassica rapa) MKPISNNDETWDATLKDLTSNVKEIQDNVLEEIITPNLKTEYLQRFNMDRFDKKLFKKNVPVVSYEDIKPDIDRVVNGESSDVISARPITGFLLSSGTSGGAQKMMPWNNKYLDNLTFAYDLRMHVITKHVKGLEEGKGMMFLFTKQETKTPSGLLARVATSSYFKSDYFTNRPSNWYYSYTSPDEVILCSNNTQSLYCHLLCGLLQRDEVVRMGSIFASVMVRAIKFLETYWEELCSNIRSGRLSEWITDLGCRSSVSLVLGGPRPDLADTIETICNQSSWKGIVTRIWPNTKYIETVVTGSMGQYVPTLNYYCSDLPLVSTTYGSSETTFGINVDPLCKPEDVSYAFMPNMSYFEFITMDGEKRDVVDLHDVKIGCTYEPVVTNFAGLYRMRVGDVLLVTGFYNNAPQFRFVRRENVVLSIDSDKTNEEDLFKAVSQAKLVLDSSDLFLEDFTSYADTSTFPGHYVIYVEVKAKGGNNHLELNEEVFSKCCSVMEDSLDNVYKRCRFKDGSVGPLEIRVVDKGTFESLMDFFINQGASTGQYKTPRCIKSGKALELMEDRVVAKFFSS | Yes | Yes | No | No | Yes | Yes
